Experimental data reported in the supplement of paper PMC10724198.

How the values were obtained:
[1] = test system: Saccharomyces cerevisiae; test: protein stability index of tFT-peptide fusion in deletion strain of DAS1 (PSI (0-1 scale)); higher = more stable (slower turnover)
Description: (§1)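 MPS profiling in S. cerevisiae of two library types built from selected 12-aa C-degron peptides (IN1, IN2, LN1, LN3, VN2, R1-R5, W1-W3, Atg1 and Rpa12 C-termini): saturation mutagenesis libraries and C-terminal +1 capping libraries (13 aa). Each peptide is fused to the C-terminus of a sfGFP-mCherry timer, after a GGGS linker. Cells are FACS-sorted into 8 mCherry/sfGFP bins and sequenced. PSI runs from 0 (unstable) to 1 (stable), measured once in wild type and in the das1Δ or doa10Δ background.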

[2] = test system: Saccharomyces cerevisiae; test: protein stability index of tFT-peptide fusion in wild type (PSI (0-1 scale)); higher = more stable (slower turnover); details: genetic background: wild type
Description: as §1
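Wherever protein stability index of tFT-peptide fusion in deletion strain of DAS1 is given: PSI is a weighted mean of each variant's read distribution over the sorted stability bins, computed only for variants having over 10 reads in total.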
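Wherever protein stability index of tFT-peptide fusion in wild type is given: PSI derived as read-weighted mean over the 8 sorting bins, only variants exceeding 10 total reads kept, mCherry placed adjacent to the peptide and sfGFP distal.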

| Sequence | protein stability index [1] | protein stability index [2] |
| --- | --- | --- |
| LKILRQKMNHQQ | 0.691 | 0.193 |
| LKILRQKMNKQN | 0.656 | 0.246 |
| LKILRQKMNRQN | 0.68 | 0.21 |
| LKILRQKMNVQN | 0.661 | 0.226 |
| LKILRQSMNHQN | 0.661 | 0.238 |
| LKILRRKMNHQN | 0.648 | 0.216 |
| LNVYLSCVACIN | 0.188 | 0.043 |
| LQILRQKMNHQN | 0.701 | 0.117 |
| LTVYLSCVACIN | 0.0375 | 0.0165 |
| LVVYHSCVACIN | 0.313 | 0.181 |
| LVVYLACVACIN | 0.041 | 0.0186 |
| LVVYLCCVACIN | 0.0405 | 0.0154 |
| LVVYLDCVACIN | 0.119 | 0.0395 |
| LVVYLSCQACIN | 0.0148 | 0.00888 |
| LVVYLSCVAAIN | 0.0388 | 0.0144 |
| LVVYLSCVACEN | 0.132 | 0.132 |
| LVVYLSCVACIE | 0.0184 | 0.0121 |
| LVVYLSCVACINF | 0.0394 | 0.024 |
| LVVYLSCVACINL | 0.0337 | 0.0224 |
| LVVYLSCVACPN | 0.0988 | 0.0732 |

| Sequence | protein stability index [1] | protein stability index [2] |
| --- | --- | --- |
| LVVYLSCVACRN | 0.0464 | 0.0192 |
| LVVYLSCVMCIN | 0.0156 | 0.0111 |
| LVVYLSCVPCIN | 0.305 | 0.237 |
| LYVYLSCVACIN | 0.0144 | 0.0152 |
| NKILRQKMNHQN | 0.701 | 0.113 |
| PDKFNHLIKLLN | 0.622 | 0.117 |
| PDKPNHLIKLLN | 0.607 | 0.199 |
| PDKRGHLIKLLN | 0.593 | 0.113 |
| PDKRHHLIKLLN | 0.705 | 0.113 |
| PDKRIHLIKLLN | 0.589 | 0.0865 |
| PDKRNCLIKLLN | 0.586 | 0.148 |
| PDKRNELIKLLN | 0.608 | 0.115 |
| PDKRNGLIKLLN | 0.614 | 0.222 |
| PDKRNHGIKLLN | 0.587 | 0.41 |
| PDKRNHLHKLLN | 0.59 | 0.265 |
| PDKRNHLIKHLN | 0.601 | 0.0778 |
| PDKRNHLIKLLD | 0.611 | 0.666 |
| PDKRNHLIKLLE | 0.606 | 0.579 |
| PDKRNHLIKLLNH | 0.669 | 0.142 |
| PDKRNHLIKLLNK | 0.67 | 0.655 |

| Sequence | protein stability index [1] | protein stability index [2] |
| --- | --- | --- |
| PDKRNHLIKLLNN | 0.666 | 0.137 |
| PDKRNHLIKLRN | 0.672 | 0.623 |
| PDKRNHLISLLN | 0.614 | 0.438 |
| PDKRNHLIWLLN | 0.705 | 0.0587 |
| PDKRNHLIYLLN | 0.702 | 0.0898 |
| PDKRNHMIKLLN | 0.625 | 0.0922 |
| PDKRNHNIKLLN | 0.602 | 0.172 |
| PDKRNHPIKLLN | 0.574 | 0.282 |
| PDKRNYLIKLLN | 0.601 | 0.119 |
| PDKRQHLIKLLN | 0.562 | 0.065 |
| PDKRWHLIKLLN | 0.633 | 0.0628 |
| PDPRNHLIKLLN | 0.582 | 0.15 |
| PDWRNHLIKLLN | 0.627 | 0.144 |
| PFKRNHLIKLLN | 0.587 | 0.0943 |
| PNKRNHLIKLLN | 0.597 | 0.0744 |
| PSFAASFWRVVG | 0.703 | 0.148 |
| PSLAAPFWRVVG | 0.696 | 0.182 |
| PSLAAQFWRVVG | 0.696 | 0.14 |
